Measurements from IntAct's records for PubMed 29892012.

B1: Keratin, type I cuticular Ha8 (Homo sapiens), O76015 (parent)
chain: MTSSYSSSSCPLGCTMAPGARNVSVSPIDIGCQPGAEANIAPMCLLANVAHANRVRVGSTPLGRPSLCLPPTCHTACPLPGTCHIPGNIGICGAYGENTLNGHEKETMQFLNDRLANYLEKVRQLEQENAELEATLLERSKCHESTVCPDYQSYFHTIEELQQKILCSKAENARLIVQIDNAKLAADDFRIKLESERSLRQLVEADKCGTQKLLDDATLAKADLEAQQESLKEEQLSLKSNHEQEVKILRSQLGEKLRIELDIEPTIDLNRVLGEMRAQYEAMLETNRQDVEQWFQAQSEGISLQDMSCSEELQCCQSEILELRCTVNALEVERQAQHTLKDCLQNSLCEAEDRFGTELAQMQSLISNVEEQLSEIRADLERQNQEYQVLLDVKTRLENEIATYRNLLESEDCKLPCNPCSTSPSCVTAPCAPRPSCGPCTTCGPTCGASTTGSRF
partner: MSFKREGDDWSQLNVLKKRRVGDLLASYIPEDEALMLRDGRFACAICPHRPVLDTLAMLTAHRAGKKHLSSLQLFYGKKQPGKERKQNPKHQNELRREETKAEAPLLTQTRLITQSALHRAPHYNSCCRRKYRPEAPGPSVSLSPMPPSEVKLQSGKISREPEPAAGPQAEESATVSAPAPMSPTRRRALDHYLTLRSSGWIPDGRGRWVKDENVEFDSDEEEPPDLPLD
B2: DNA topoisomerase 3-beta-1 (Homo sapiens), O95985 (parent)
chain: MKTVLMVAEKPSLAQSIAKILSRGSLSSHKGLNGACSVHEYTGTFAGQPVRFKMTSVCGHVMTLDFLGKYNKWDKVDPAELFSQAPTEKKEANPKLNMVKFLQVEGRGCDYIVLWLDCDKEGENICFEVLDAVLPVMNKAHGGEKTVFRARFSSITDTDICNAMACLGEPDHNEALSVDARQELDLRIGCAFTRFQTKYFQGKYGDLDSSLISFGPCQTPTLGFCVERHDKIQSFKPETYWVLQAKVNTDKDRSLLLDWDRVRVFDREIAQMFLNMTKLEKEAQVEATSRKEKAKQRPLALNTVEMLRVASSSLGMGPQHAMQTAERLYTQGYISYPRTETTHYPENFDLKGSLRQQANHPYWADTVKRLLAEGINRPRKGHDAGDHPPITPMKSATEAELGGDAWRLYEYITRHFIATVSHDCKYLQSTISFRIGPELFTCSGKTVLSPGFTEVMPWQSVPLEESLPTCQRGDAFPVGEVKMLEKQTNPPDYLTEAELITLMEKHGIGTDASIPVHINNICQRNYVTVESGRRLKPTNLGIVLVHGYYKIDAELVLPTIRSAVEKQLNLIAQGKADYRQVLGHTLDVFKRKFHYFVDSIAGMDELMEVSFSPLAATGKPLSRCGKCHRFMKYIQAKPSRLHCSHCDETYTLPQNGTIKLYKELRCPLDDFELVLWSSGSRGKSYPLCPYCYNHPPFRDMKKGMGCNECTHPSCQHSLSMLGIGQCVECESGVLVLDPTSGPKWKVACNKCNVVAHCFENAHRVRVSADTCSVCEAALLDVDFNKAKSPLPGDETQHMGCVFCDPVFQELVELKHAASCHPMHRGGPGRRQGRGRGRARRPPGKPNPRRPKDKMSALAAYFV
B3: Casein kinase II subunit alpha (Homo sapiens), P68400 (parent)
chain: MSGPVPSRARVYTDVNTHRPREYWDYESHVVEWGNQDDYQLVRKLGRGKYSEVFEAINITNNEKVVVKILKPVKKKKIKREIKILENLRGGPNIITLADIVKDPVSRTPALVFEHVNNTDFKQLYQTLTDYDIRFYMYEILKALDYCHSMGIMHRDVKPHNVMIDHEHRKLRLIDWGLAEFYHPGQEYNVRVASRYFKGPELLVDYQMYDYSLDMWSLGCMLASMIFRKEPFFHGHDNYDQLVRIAKVLGTEDLYDYIDKYNIELDPRFNDILGRHSRKRWERFVHSENQHLVSPEALDFLDKLLRYDHQSRLTAREAMEHPYFYTVVKDQARMGSSSMPGGSTPVSSANMMSGISSVPTPSPLGPLAGSPVIAAANPLGMPVPAAAGAQQ
partner: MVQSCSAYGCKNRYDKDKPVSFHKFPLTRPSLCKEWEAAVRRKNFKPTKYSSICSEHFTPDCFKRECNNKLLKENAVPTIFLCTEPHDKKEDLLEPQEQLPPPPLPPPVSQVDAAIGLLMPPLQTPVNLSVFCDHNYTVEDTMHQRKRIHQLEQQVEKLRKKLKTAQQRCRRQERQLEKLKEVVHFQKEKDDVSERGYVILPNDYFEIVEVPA
B4: Keratin, type I cuticular Ha8 (Homo sapiens), O76015 (parent)
chain: B1 chain
partner: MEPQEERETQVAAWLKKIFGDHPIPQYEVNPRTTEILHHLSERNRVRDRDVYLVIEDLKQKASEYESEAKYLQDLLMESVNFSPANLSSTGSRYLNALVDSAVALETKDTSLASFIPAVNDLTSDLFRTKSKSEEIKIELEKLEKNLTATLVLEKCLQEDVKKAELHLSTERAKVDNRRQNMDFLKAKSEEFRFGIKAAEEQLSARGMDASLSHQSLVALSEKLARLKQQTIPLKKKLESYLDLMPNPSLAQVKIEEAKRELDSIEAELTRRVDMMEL
B5: CLK4-associating serine/arginine rich protein (Homo sapiens), Q8N2M8 (parent)
chain: MWHEARKHERKLRGMMVDYKKRAERRREYYEKIKKDPAQFLQVHGRACKVHLDSAVALAAESPVNMMPWQGDTNNMIDRFDVRAHLDHIPDYTPPLLTTISPEQESDERKCNYERYRGLVQNDFAGISEEQCLYQIYIDELYGGLQRPSEDEKKKLAEKKASIGYTYEDSTVAEVEKAAEKPEEEESAAEEESNSDEDEVIPDIDVEVDVDELNQEQVADLNKQATTYGMADGDFVRMLRKDKEEAEAIKHAKALEEEKAMYSGRRSRRQRREFREKRLRGRKISPPSYARRDSPTYDPYKRSPSESSSESRSRSRSPTPGREEKITFITSFGGSDEEAAAAAAAAAASGVTTGKPPAPPQPGGPAPGRNASARRRSSSSSSSSSASRTSSSRSSSRSSSRSRRGGGYYRSGRHARSRSRSWSRSRSRSRRYSRSRSRGRRHSGGGSRDGHRYSRSPARRGGYGPRRRSRSRSHSGDRYRRGGRGLRHHSSSRSRSSWSLSPSRSRSLTRSRSHSPSPSQSRSRSRSRSQSPSPSPAREKLTRPAASPAVGEKLKKTEPAAGKETGAAKPKLTPQEKLKLRMQKALNRQFKADKKAAQEKMIQQEHERQEREDELRAMARKIRMKERERREKEREEWERQYSRQSRSPSPRYSREYSSSRRRSRSRSRSPHYRH
partner: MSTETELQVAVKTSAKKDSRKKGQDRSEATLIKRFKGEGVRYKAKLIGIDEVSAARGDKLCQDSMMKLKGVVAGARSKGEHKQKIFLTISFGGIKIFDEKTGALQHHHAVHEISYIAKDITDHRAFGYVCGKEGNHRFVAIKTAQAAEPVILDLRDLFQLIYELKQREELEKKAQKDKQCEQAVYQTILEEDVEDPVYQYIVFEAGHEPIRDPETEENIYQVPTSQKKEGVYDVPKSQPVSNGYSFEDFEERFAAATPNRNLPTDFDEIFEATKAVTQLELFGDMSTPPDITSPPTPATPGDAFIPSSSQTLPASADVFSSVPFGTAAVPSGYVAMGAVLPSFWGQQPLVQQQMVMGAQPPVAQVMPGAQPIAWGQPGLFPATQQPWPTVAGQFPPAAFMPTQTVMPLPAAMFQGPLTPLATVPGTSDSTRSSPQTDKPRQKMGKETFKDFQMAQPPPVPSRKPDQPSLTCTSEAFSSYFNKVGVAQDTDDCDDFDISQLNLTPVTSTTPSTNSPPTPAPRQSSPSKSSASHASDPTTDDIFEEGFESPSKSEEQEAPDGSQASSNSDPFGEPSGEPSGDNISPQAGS
B6: Mothers against decapentaplegic homolog 4 (Homo sapiens), Q13485 (parent)
chain: MDNMSITNTPTSNDACLSIVHSLMCHRQGGESETFAKRAIESLVKKLKEKKDELDSLITAITTNGAHPSKCVTIQRTLDGRLQVAGRKGFPHVIYARLWRWPDLHKNELKHVKYCQYAFDLKCDSVCVNPYHYERVVSPGIDLSGLTLQSNAPSSMMVKDEYVHDFEGQPSLSTEGHSIQTIQHPPSNRASTETYSTPALLAPSESNATSTANFPNIPVASTSQPASILGGSHSEGLLQIASGPQPGQQQNGFTGQPATYHHNSTTTWTGSRTAPYTPNLPHHQNGHLQHHPPMPPHPGHYWPVHNELAFQPPISNHPAPEYWCSIAYFEMDVQVGETFKVPSSCPIVTVDGYVDPSGGDRFCLGQLSNVHRTEAIERARLHIGKGVQLECKGEGDVWVRCLSDHAVFVQSYYLDREAGRAPGDAVHKIYPSAYIKVFDLRQCHRQMQQQAATAQAAAAAQAAAVAGNIPGPGSVGGIAPAISLSAAAGIGVDDLRRLCILRMSFVKGWGPDYPRQSIKETPCWIEIHLHRALQLLDEVLHTMPIADPQPLD

Variants of: B1
Conditions: with scnm1_human SCNM1, Q9BWG6

effect of a mutation on the interaction	Variant
with no effect	N270K

Variants of: B2
Conditions: with spre2_human SPRED2, Q7Z698
spre2_human SPRED2, Q7Z698, sequence (Q7Z698 whole entry): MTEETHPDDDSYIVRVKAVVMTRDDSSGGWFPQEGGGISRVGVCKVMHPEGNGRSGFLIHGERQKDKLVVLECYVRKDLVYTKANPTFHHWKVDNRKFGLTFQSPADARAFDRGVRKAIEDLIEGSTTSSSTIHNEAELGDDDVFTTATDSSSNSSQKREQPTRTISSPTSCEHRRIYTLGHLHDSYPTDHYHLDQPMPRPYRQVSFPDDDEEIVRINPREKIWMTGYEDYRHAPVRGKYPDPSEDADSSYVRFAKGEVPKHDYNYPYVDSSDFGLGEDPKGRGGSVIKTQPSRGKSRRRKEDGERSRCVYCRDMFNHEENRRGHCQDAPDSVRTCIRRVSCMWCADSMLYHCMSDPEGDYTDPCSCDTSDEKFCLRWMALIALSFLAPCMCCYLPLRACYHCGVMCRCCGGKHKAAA

effect of a mutation on the interaction	Variant
disrupting interaction strength	C666R

Variants of: B3
Conditions: with thap1_human THAP1, Q9NVV9

effect of a mutation on the interaction	Variant
with no effect	K198R

Variants of: B4
Conditions: with haus1_human HAUS1, Q96CS2

effect of a mutation on the interaction	Variant
with no effect	N270K

Variants of: B4
Conditions: with haus1_human HAUS1, Q96CS2
Remark: another data set of the same source

effect of a mutation on the interaction	Variant
with no effect	D306A

Variants of: B5
Conditions: with dab1_human DAB1, O75553

effect of a mutation on the interaction	Variant
with no effect	I163V

Variants of: B6
Conditions: with ews_human EWSR1, Q01844
ews_human EWSR1, Q01844, sequence (Q01844 whole entry): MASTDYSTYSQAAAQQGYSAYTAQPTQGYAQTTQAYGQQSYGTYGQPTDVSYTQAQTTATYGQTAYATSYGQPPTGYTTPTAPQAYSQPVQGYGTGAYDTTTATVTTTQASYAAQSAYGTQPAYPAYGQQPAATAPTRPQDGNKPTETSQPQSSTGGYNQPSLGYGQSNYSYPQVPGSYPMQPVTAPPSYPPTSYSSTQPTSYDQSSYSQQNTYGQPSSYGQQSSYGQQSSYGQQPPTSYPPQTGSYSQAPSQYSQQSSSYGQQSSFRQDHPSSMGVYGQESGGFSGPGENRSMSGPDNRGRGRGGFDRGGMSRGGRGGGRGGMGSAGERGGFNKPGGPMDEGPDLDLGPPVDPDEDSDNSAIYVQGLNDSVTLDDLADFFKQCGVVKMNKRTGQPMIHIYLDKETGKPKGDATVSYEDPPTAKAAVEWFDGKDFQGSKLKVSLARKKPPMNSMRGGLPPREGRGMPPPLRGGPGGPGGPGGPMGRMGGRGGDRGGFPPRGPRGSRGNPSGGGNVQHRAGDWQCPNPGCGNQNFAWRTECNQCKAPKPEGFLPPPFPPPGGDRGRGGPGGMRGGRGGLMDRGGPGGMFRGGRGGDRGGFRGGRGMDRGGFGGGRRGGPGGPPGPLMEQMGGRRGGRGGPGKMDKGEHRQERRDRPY

effect of a mutation on the interaction	Variant
disrupting interaction strength	I500V

Variants of: B6
Conditions: with smad3_human SMAD3, P84022
smad3_human SMAD3, P84022, sequence (P84022 whole entry, looked up): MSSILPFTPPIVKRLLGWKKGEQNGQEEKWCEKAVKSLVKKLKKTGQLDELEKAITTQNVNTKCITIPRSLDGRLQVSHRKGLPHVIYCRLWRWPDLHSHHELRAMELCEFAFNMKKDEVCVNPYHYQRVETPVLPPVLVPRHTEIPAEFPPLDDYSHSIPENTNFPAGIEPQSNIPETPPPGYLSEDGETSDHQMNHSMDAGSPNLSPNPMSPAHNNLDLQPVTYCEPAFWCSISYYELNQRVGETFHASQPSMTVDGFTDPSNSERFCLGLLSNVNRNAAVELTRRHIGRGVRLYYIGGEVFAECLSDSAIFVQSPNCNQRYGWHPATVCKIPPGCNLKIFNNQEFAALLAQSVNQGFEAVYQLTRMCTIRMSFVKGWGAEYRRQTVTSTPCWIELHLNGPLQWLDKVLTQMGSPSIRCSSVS

effect of a mutation on the interaction	Variant
with no effect	I500V
